Reference: US20090274682
Where a chain is given by its changes, count along the chain named. In names and notes the source's numbering stands.

Experiments:
[1] = target: PP2A core enzyme (AC heterodimer) involving the full-length A subunit
[2] = target: PP2A core enzyme involving full-length Cα and AΔN, methylated by LCMT1
[3] = target: PP2A core enzyme variant involving truncation of the carboxy-terminus of the catalytic subunit (two C-terminal amino acids removed by chymotrypsin)
Chain of PP2A core enzyme variant involving truncation of the carboxy-terminus of the catalytic subunit (two C-terminal amino acids removed by chymotrypsin) (chain, as listed by the source mutant, chain 1 of 2): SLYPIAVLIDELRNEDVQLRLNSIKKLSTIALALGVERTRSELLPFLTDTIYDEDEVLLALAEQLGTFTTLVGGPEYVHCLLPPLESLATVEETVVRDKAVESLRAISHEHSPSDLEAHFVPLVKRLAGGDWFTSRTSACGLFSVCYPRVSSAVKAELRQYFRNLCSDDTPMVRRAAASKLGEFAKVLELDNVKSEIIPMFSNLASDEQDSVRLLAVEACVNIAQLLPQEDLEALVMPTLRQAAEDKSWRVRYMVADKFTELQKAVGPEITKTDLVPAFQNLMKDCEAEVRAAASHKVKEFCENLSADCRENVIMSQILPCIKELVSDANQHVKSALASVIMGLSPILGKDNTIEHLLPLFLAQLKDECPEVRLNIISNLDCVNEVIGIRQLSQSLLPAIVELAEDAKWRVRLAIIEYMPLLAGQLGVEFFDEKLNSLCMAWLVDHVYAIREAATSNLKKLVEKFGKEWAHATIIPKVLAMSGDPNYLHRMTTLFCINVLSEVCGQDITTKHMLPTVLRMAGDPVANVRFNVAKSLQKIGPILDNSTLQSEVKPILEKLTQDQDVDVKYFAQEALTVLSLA
Chain of PP2A core enzyme variant involving truncation of the carboxy-terminus of the catalytic subunit (two C-terminal amino acids removed by chymotrypsin) (chain, as listed by the source mutant, chain 2 of 2): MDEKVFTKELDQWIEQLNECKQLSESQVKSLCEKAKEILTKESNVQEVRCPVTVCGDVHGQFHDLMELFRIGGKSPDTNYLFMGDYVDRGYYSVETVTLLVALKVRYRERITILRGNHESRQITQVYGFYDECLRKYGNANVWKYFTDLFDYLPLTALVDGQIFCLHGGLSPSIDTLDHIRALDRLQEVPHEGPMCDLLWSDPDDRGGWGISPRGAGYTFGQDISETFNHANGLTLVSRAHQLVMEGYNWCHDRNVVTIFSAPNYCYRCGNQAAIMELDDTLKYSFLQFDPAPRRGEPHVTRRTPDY

Chain of PP2A core enzyme (AC heterodimer) involving the full-length A subunit (chain, as listed by the source, chain 1 of 2): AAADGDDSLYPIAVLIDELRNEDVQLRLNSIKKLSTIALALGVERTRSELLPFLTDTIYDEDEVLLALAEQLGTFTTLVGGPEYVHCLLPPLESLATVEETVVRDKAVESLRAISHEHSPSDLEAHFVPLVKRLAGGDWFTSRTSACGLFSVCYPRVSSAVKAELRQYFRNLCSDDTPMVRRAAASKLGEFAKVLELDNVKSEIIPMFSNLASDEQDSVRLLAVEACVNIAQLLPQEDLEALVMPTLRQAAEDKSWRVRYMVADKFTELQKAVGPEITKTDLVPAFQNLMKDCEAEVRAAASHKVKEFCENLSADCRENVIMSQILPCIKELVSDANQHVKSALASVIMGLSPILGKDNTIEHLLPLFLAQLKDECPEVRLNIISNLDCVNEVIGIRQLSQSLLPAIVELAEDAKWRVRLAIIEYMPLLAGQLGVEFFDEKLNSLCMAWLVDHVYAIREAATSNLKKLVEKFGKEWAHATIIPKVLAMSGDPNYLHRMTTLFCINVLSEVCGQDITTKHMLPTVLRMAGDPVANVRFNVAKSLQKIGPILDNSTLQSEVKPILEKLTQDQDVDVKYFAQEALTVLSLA
Chain of PP2A core enzyme (AC heterodimer) involving the full-length A subunit (chain, as listed by the source, chain 2 of 2): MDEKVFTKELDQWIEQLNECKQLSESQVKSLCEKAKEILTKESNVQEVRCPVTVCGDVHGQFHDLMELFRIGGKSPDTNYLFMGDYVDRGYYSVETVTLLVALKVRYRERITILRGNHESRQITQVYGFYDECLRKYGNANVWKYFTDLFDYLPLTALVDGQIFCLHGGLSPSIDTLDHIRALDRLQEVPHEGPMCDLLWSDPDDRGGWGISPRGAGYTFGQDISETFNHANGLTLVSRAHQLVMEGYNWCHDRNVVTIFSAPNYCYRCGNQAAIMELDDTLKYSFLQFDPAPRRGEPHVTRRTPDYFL
Chain of PP2A core enzyme involving full-length Cα and AΔN, methylated by LCMT1 (chain, as listed by the source mutant, chain 1 of 2): as the sequence (chain, as listed by the source mutant, chain 1 of 2) above
Chain of PP2A core enzyme involving full-length Cα and AΔN, methylated by LCMT1 (chain, as listed by the source mutant, chain 2 of 2): as the sequence (chain, as listed by the source, chain 2 of 2) above

B1: Full-length PME-1 (1-386) (protein)
chain: MSALEKSMHLGRLPSRPPLPGSGGSQSGAKMRMGPGRKRDFSPVPWSQYFESMEDVEVENETGKDTFRVYKSGSEGPVLLLLHGGGHSALSWAVFTAAIISRVQCRIVALDLRSHGETKVKNPEDLSAETMAKDVGNVVEAMYGDLPPPIMLIGHSMGGAIAVHTASSNLVPSLLGLCMIDVVEGTAMDALNSMQNFLRGRPKTFKSLENAIEWSVKSGQIRNLESARVSMVGQVKQCEGITSPEGSKSIVEGIIEEEEEDEEGSESISKRKKEDDMETKKDHPYTWRIELAKTEKYWDGWFRGLSNLFLSCPIPKLLLLAGVDRLDKDLTIGQMQGKFQMQVLPQCGHAVHEDAPDKVAEAVATFLIRHRFAEPIGGFQCVFPGC
- LCMT1-catalyzed methylation [1]: the stable complex between PP2A and PME-1 blocks LCMT1-catalyzed methylation (data not shown)
- phosphatase activity after incubation at 37° C. [1]: A prolonged incubation time was required for substantial loss of the phosphatase activity in vitro
- phosphatase activity towards phosphorylase a upon initial incubation [1]: The PP2A core enzyme, upon initial incubation with various concentrations of PME-1, exhibited full phosphatase activity towards the substrate phosphorylase a
- methylesterase activity of PME-1 [2]: The methylesterase activity of PME-1 on the PP2A core enzyme involving the AΔN variant was nearly identical to that on the PP2A core enzyme involving the full-length A subunit
- methylesterase activity of PME-1 after pre-incubation with the PP2A variant and PMSF [3]: pre-incubation with the PP2A variant and PMSF led to marked reduction of PME-1-mediated methylesterase activity

B2: PME-1 R369D (protein)
chain: B1 chain with R369D
- methylesterase activity [1]: R369D in PME-1 resulted in marked reduction of its methylesterase activity

B3: PME-1 M335D (protein)
chain: B1 chain with M335D
- Mn2+ bound (ICP-MS) and phosphatase activity with or without manganese chloride [1]: mutation of Met335 to aspartate in PME-1 led to decreased ability to remove the metal ions, and the PP2A-PME-1-M335D complex became readily activated by manganese
